B1: PINK1: exogenously expressed wild type PINK1 (V5 or myc tagged) (protein, UniProt Q9BXM7 78-581, looked up)
Serine/threonine-protein …: AARLQRQFVVRAWGCAGPCGRAVFLAFGLGLGLIEEKQAESRRAVSACQEIQAIFTQKSKPGPDPLDTRRLQGFRLEEYLIGQSIGKGCSAAVYEATMPTLPQNLEVTKSTGLLPGRGPGTSAPGEGQERAPGAPAFPLAIKMMWNISAGSSSEAILNTMSQELVPASRVALAGEYGAVTYRKSKRGPKQLAPHPNIIRVLRAFTSSVPLLPGALVDYPDVLPSRLHPEGLGHGRTLFLVMKNYPCTLRQYLCVNTPSPRLAAMMLLQLLEGVDHLVQQGIAHRDLKSDNILVELDPDGCPWLVIADFGCCLADESIGLQLPFSSWYVDRGGNGCLMAPEVSTARPGPRAVIDYSKADAWAVGAIAYEIFGLVNPFYGQGKAHLESRSYQEAQLPALPESVPPDVRQLVRALLQREASKRPSARVAANVLHLSLWGEHILALKNLKLDKMVGWLLQQSAATLLANRLTEKCCVETKMKMLFLANLECETLCQAALLLCSWRAAL
modifications: V5 or myc tag
B2: YFP-Parkin: YFP-tagged Parkin E3 ligase expressed from a transfected vector (protein, UniProt O60260 1-465, looked up)
E3 ubiquitin-protein ligase …: MIVFVRFNSSHGFPVEVDSDTSIFQLKEVVAKRQGVPADQLRVIFAGKELRNDWTVQNCDLDQQSIVHIVQRPWRKGQEMNATGGDDPRNAAGGCEREPQSLTRVDLSSSVLPGDSVGLAVILHTDSRKDSPPAGSPAGRSIYNSFYVYCKGPCQRVQPGKLRVQCSTCRQATLTLTQGPSCWDDVLIPNRMSGECQSPHCPGTSAEFFFKCGAHPTSDKETSVALHLIATNSRNITCITCTDVRSPVLVFQCNSRHVICLDCFHLYCVTRLNDRQFVHDPQLGYSLPCVAGCPNSLIKELHHFRILGEEQYNRYQQYGAEECVLQMGGVLCPRPGCGAGLLPEPDQRKVTCEGGNGLGCGFAFCRECKEAYHEGECSAVFEASGTTTQAYRVDERAAEQARWEAASKETIKKTTKPCPRCHVPVEKNGGCMHMKCPQPQCRLEWCWNCGCEWNRVCMGDHWFDV
modifications: YFP fusion
notes: YFP-tagged Parkin E3 ligase expressed from a transfected vector

Tests used:
[1] = test system: HeLa cells; experiment: Live cell imaging, time to Parkin translocation; assay type: cell-based; settings: mCherry-Parkin alone (CCCP line) or with PINK1-YFP 1:1, 10 μM CCCP
Method: FIGS. 13A-13D show the kinetics of Parkin recruitment are modulated by PINK1 expression. […] The cells were imaged live following the addition of 10 μM CCCP in serum at time point 0 min FIG. 13B lists the vectors used for transfection of HeLa cells with mCherry-Parkin and the indicated construct in a 1:1 ratio were treated as in (A) and imaged live (1 frame/minute) following the addition of CCCP. Time to the beginning of Parkin translocation was defined as the first appearance of puncta in ≧2 quandrants of the cell for ≧2 consecutive images for ≧6 cells in ≧3 independent experiments. […] Cells were loaded with TMRE (red) to stain polarized mitochondria. Cells were not treated with CCCP. Scale bars in last image=10 μm. FIG. 13D is a graph that quantitates results in cells treated as described in FIG. 13C, which were scored for co-localization between YFP-Parkin and TMRE. ≧50 cells/experiment were scored in ≧3 independent experiments.
(§1) Confocal microscopy of fixed samples, scoring of Parkin recruitment and Parkin-induced mitophagy, and live cell imageing were performed as described previously (Narendra (2008) J Cell Biol 183: 795-803). Experiments in Mfn1/2 null cells were performed as described previously with minor modifications described in the supplemental methods (Narendra (2008) J Cell Biol 183: 795-803).

[2] = test system: PINK1+/+ or PINK1−/− MEFs; experiment: YFP-Parkin recruitment to mitochondria in MEFs; assay type: cell-based, mouse; settings: for Parkin recruited to mitochondria, % of cells: CCCP
Source text: (§2) HeLa YFP-Parkin, PINK1+/+ SV40 transformed MEFs cells, PINK1−/− SV40 transformed MEF, M17 neuroblastoma control shRNA, M17 neuroblastoma PINK1, and Mfn1/2−/− MEF cell lines have been described previously (Narendra (2008) J Cell Biol 183: 795-803). PINK1+/+ and PINK1−/− primary MEFs were isolated from embryos using a standard protocol (Gautier (2008) Proc Natl Acad Sci USA 105: 11364-11369). Parkin+/+ and Parkin−/− transformed MEFs were created by isolation of primary cells from embryos of B6.129S4-Park2tm1Shn/J mice (Jackson Labs), using a standard protocol (Gautier (2008) Proc Natl Acad Sci USA 105: 11364-11369), followed by retroviral transduction of SV40 (Applied Biological Materials, Inc.). YFP-Parkin, YFPParkin mutants, mCherry-Parkin, PINK1-YFP, PINK1 KD-YFP, PINK1 Δ1-110-YFP, and Opa3-PINK1 Δ1-110-YFP are in C1 or N1 Clontech vectors. PINK1WT-V5, PINK1 KD-V5, and PINK1 Δ1-156-V5 are in pDest40 vector (Invitrogen). PINK1 patient mutations are in pLenti-V5 vector (Invitrogen). PINK1-myc is in a pCMBTNT vector (Promega).
(§3) Confocal microscopy of fixed samples, scoring of Parkin recruitment and Parkininduced mitophagy, and live cell imaging were performed as described previously (Narendra (2008) J Cell Biol 183: 795-803). Experiments in Mfn1/2 null cells were performed as described previously with minor modifications.
HeLa YFP-Parkin, E18 Rat cortical neurons, PINK1^+/+ SV40 transformed MEFs cells, PINK1^−/− SV40 transformed MEF, M17 neuroblastoma control shRNA, M17 neuroblastoma PINK1, Mfn1/2^−/− MEF, and Parl^−/− MEF cell lines have been described previously (Narendra (2008) J Cell Biol 183: 795-803). PINK1^+/+ and PINK1^−/− primary MEFs were isolated from embryos using a standard protocol (Gautier (2008) Proc Natl Acad Sci USA 105: 11364-11369). Parkin^+/+ and Parkin^−/− transformed MEFs were created by isolation of primary cells from embryos of B6.129S4-Park2^tm1Shn/J mice (Jackson Labs), using a standard protocol (Gautier (2008) Proc Natl Acad Sci USA 105: 11364-11369), followed by retroviral transduction of SV40 (Applied Biological Materials, Inc.). YFP-Parkin, YFP-Parkin mutants, mCherry-Parkin, PINK1-YFP, PINK1 KD-YFP, PINK1 Δ1-110-YFP, and Opa3-PINK1 Δ1-110-YFP are in C1 or N1 Clontech vectors. PINK1WT-V5, PINK1 KD-V5, and PINK1 Δ1-156-V5 are in pDest40 vector (Invitrogen). PINK1 patient mutations are in the pLenti-V5 vector (Invitrogen). PINK1-myc is in a pCMBTNT vector (Promega). The PARL shRNA construct targeting (5′ […] 3′) is in the pSuper-GFP vector. To make FRB-PINK1 (111-581)-YFP and Tom20 (1-33)-FKBP, PCR fragments containing PINK1 (111-581)-YFP and Tom20 (1-33) were cloned into the BamHI site of the pC4-RHE vector and the EcoRI and XbaI sites of pC4M-F2E vectors, respectively (ARIAD Pharmaceuticals). The rapamycin analogue AP21967 was obtained from ARIAD Pharmaceuticals. The PARL shRNA construct targeting (5′ […] 3′) is in the pSuper-GFP vector (OligoEngine).
as §1

[3] = test system: PINK1+/+ or PINK1−/− MEFs; experiment: Parkin-induced mitophagy in MEFs; assay type: cell-based, mouse; settings: primary MEFs expressing YFP-Parkin, 20 μM CCCP, 24 hours; PINK1+/+ (CCCP line) or PINK−/− reconstituted with PINK1
Source text: as §2
as §3, with “modifications. […]” for “modifications.”

[4] = test system: HeLa cells; experiment: Parkin-induced mitophagy, loss of mitochondria by immunocytochemistry; assay type: cell-based
Method: Cultured cells seeded in borosilicate chamber slides (Thermo Fisher Scientific) were transfected or cotransfected with YFP-Parkin, ECFP-Parkin, mCherry-Parkin, DsRed-Mito (Clontech Laboratories, Inc.), pcDNA3.1 (Invitrogen), vMIA, and/or Drp1K38A constructs using Fugene 6 (Roche). Parkin-myc was a gift from M. Cookson (National Institutes of Health, Bethesda, Md.). Cells were fixed 12-24 hours after transfection with 4% paraformaldehyde in PBS. Cells were stained with following primary antibodies: mouse monoclonal cytochrome c (BD), rabbit polyclonal Tom20 (Santa Cruz Biotechnology, Inc.), mouse monoclonal Parkin PRK8 (Santa Cruz Biotechnology, Inc.), rabbit polyclonal PMP70 (Invitrogen), and/or mouse monoclonal TRAP1 (Abcam); and with the following secondary antibodies: mouse and/or rabbit Alexa 488, 594, and 633 (Invitrogen). For assessment of mitochondrial membrane potential, cells were pulsed with 50 nM Mito-Tracker red (Invitrogen) for 15 min, washed, and incubated for an additional 10 minutes before fixation or imaging. For assessment of cell metabolic potential, cell nuclei were stained with Hoechst 33342 (Invitrogen).
as §3, §1

Row | Molecule | time to translocation of Parkin [1] [min] | YFP-Parkin recruited to mitochondria, % of cells ([2]; PINK1+/+ primary MEFs, 20 μM CCCP, 3 hours) [%] | Parkin recruited to mitochondria, % of cells ([2]; SV40 transformed PINK1+/+ MEFs) [%] | cells with no detectable mitochondria [3] [%] | cells with no mitochondria ([4]; HeLa, co-transfection with Parkin, 96 hours, absence of CCCP) [%] | reconstitution of YFP-Parkin recruitment ([2]; PINK1−/− primary MEFs co-transfected with construct, 20 μM CCCP, 3 hours) | YFP-Parkin recruited to mitochondria, % of cells ([2]; PINK1−/− primary MEFs expressing the PINK1 construct, 20 μM CCCP, 3 hours) [%] | Parkin recruited to mitochondria, % of cells ([2]; SV40 transformed PINK1−/− MEFs with exogenous construct) [%] | cells with no mitochondria ([4]; HeLa expressing YFP-Parkin variant, CCCP 24 hours) [%] | mitochondrial mass in Parkin-expressing cells ([4]; HeLa, 10 μM CCCP, 12 hours) | mitochondria detectable in Parkin-expressing cells (Tom20, cytochrome c, TRAP1) ([4]; HeLa, 10 μM CCCP, 48 hours)
1 | N#CC(C#N)=NNc1cccc(Cl)c1 [CCCP, carbonyl cyanide m-chlorophenylhydrazone] | 32.0 ± 5.4 | 43.3±8.1 | 60.7±7.7 | 66.1±16.8 | – | – | – | – | – | – | –
2 | B1 | 5.0 ± 1.5 | – | – | 65.5±5.0 | 42.1±7.3 | reconstituted | 78.6±3.9 | 72.8±7.7 | – | – | –
3 | B2 | – | – | – | – | – | – | – | – | 59.0±15.1 | grossly reduced | no mitochondria remained detectable

From patent US20120277286A1, “COMPOSITIONS AND METHODS FOR THE TREATMENT OR PREVENTION OF MITOCHONDRIAL DISEASES” (The Government of the USA, as represented by the Secretary, …, priority 2009, published 2012)
